According to publication PMC7703809 (ChemMedChem, 2020):
Non-standard residues stand in square brackets, D forms with d. Residues, ends and D or L forms follow the SMILES beside them. No end group written: not given here. *: point of attachment. Benzoyl(4-octyl) = CCCCCCCCc1ccc(C(=O)*)cc1; pT = C[C@@H](OP(=O)(O)O)[C@H](N)C(=O)O

What was measured:
[1] = target: PLK1 PBD (367–603) (Homo sapiens, UniProt P53350); assay: Fluorescence polarization competitive binding assay, PLK1 PBD; settings: for Selectivity Index: PLK1 vs PLK3 PBD, accounting for 5-fold difference in tracer affinity
[2] = target: T1, PLK3 PBD (335–646) (Homo sapiens, UniProt Q9H4B4); assay: Fluorescence polarization competitive binding assay, PLK3 PBD
T1 sequence (Q9H4B4 335-646): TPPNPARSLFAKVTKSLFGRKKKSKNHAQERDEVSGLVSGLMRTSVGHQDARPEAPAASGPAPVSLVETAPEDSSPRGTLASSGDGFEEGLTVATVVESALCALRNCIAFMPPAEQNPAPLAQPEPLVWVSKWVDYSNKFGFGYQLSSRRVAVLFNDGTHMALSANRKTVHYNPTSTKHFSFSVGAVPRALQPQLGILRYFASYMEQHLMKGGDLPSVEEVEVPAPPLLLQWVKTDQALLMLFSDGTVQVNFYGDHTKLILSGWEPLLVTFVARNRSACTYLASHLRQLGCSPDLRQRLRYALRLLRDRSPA

[3] = target: T2, PLK3 fluorescein tracer phosphopeptide (also: fluorescein label, place not given here); assay: fluorescence polarization
T2 chain: GPLATS[pT]PKNG

[4] = target: T3, PBIP phosphopeptide 4 (Homo sapiens); assay: fluorescence polarization competition
T3 chain: Ac-PLHS[pT]AI

[5] = target: T4, chimeric peptide 9; assay: fluorescence polarization competition
T4 chain: Ac-PLHS[pT]PKNG

[6] = target: T5, PBIP phosphopeptide 6 (Homo sapiens); assay: fluorescence polarization competition
T5 chain: Ac-PLHS[pT]A

[7] = target: T6, chimeric peptide 8; assay: fluorescence polarization competition
T6 chain: GPLATS[pT]PNGL

[8] = target: T7, chimeric peptide 3; assay: fluorescence polarization competition
T7 chain: Ac-PLHS[pT]PNGL

[9] = target: T8, PBIP phosphopeptide 5 (Homo sapiens); assay: fluorescence polarization competition
T8 chain: Ac-LHS[pT]AI

[10] = target: T9, FLIP 19; assay: fluorescence polarization competition
T9 chain: {4‑butylbenzoyl}-S[pT]PNGL

[11] = target: T10, PLK3 consensus peptide 7; assay: fluorescence polarization competition
T10 chain: GPLATS[pT]PKNG

[12] = target: T11, Cdc25C phosphopeptide 1 (Homo sapiens); assay: fluorescence polarization competition
T11 chain: LLCS[pT]PNGL

[13] = target: T12, FLIP 21; assay: fluorescence polarization competition
T12 chain: {Benzoyl(4-octyl)}-S[pT]PNGL

Sequence of PLK1 PBD (367–603) (P53350 367-603): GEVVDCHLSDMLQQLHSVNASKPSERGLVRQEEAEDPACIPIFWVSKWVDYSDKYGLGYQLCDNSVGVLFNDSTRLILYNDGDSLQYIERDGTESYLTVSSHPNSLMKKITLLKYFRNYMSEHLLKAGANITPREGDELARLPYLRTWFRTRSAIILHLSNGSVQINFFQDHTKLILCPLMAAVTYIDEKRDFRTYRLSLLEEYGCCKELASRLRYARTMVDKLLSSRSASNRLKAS

CC[C@H](C)[C@H](NC(=O)[C@H](C)NC(=O)[C@@H](NC(=O)[C@H](CO)NC(=O)[C@H](Cc1c[nH]cn1)NC(=O)[C@H](CC(C)C)NC(=O)[C@@H]1CCCN1C(C)=O)[C@@H](C)OP(=O)(O)O)C(=O)O [Compound 4, Ac-PLHS[pT]AI] (Ac-PLHS[pT]AI-OH)
Selectivity Index [1]: 21,133

LLCSTPNGL [Compound 2]
PLK1 PBD FP IC50 ([1]; competition with fluorescein tracer MAGPMQS[pT]PLNGAKK, maximum 600 μM tested): almost complete loss of binding

CC(=O)N1CCC[C@H]1C(=O)N[C@@H](CC(C)C)C(=O)N[C@@H](Cc1c[nH]cn1)C(=O)N[C@@H](CO)C(=O)N[C@H](C(=O)N1CCC[C@H]1C(=O)N[C@@H](CCCCN)C(=O)N[C@@H](CC(N)=O)C(=O)NCC(=O)O)[C@@H](C)OP(=O)(O)O [Compound 9, Ac-PLHS[pT]PKNG] (Ac-PLHS[pT]PKNG-OH)
Selectivity Index [1]: 20,906

CC[C@H](C)[C@H](NC(=O)[C@H](C)NC(=O)[C@@H](NC(=O)[C@H](CO)NC(=O)[C@H](Cc1c[nH]cn1)NC(=O)[C@H](CC(C)C)NC(C)=O)[C@@H](C)OP(=O)(O)O)C(=O)O [Compound 5, Ac-LHS[pT]AI] (Ac-LHS[pT]AI-OH)
PLK3 PBD FP IC50 ([2]; competition with fluorescein tracer GPLATS[pT]PKNG, maximum 600 μM tested): lost all detectable affinity

CC(C)C[C@H](NC(=O)CNC(=O)[C@H](CC(N)=O)NC(=O)[C@@H]1CCCN1C(=O)[C@@H](NC(=O)[C@H](CO)NC(=O)[C@H](CS)NC(=O)[C@H](CC(C)C)NC(=O)[C@@H](N)CC(C)C)[C@@H](C)OP(=O)(O)O)C(=O)O [Compound 1, LLCS[pT]PNGL] (H-LLCS[pT]PNGL-OH)
IC50 [2]: > 600 µM

B1: PLK3 PBD 335-646 (protein)
chain: TPPNPARSLFAKVTKSLFGRKKKSKNHAQERDEVSGLVSGLMRTSVGHQDARPEAPAASGPAPVSLVETAPEDSSPRGTLASSGDGFEEGLTVATVVESALCALRNCIAFMPPAEQNPAPLAQPEPLVWVSKWVDYSNKFGFGYQLSSRRVAVLFNDGTHMALSANRKTVHYNPTSTKHFSFSVGAVPRALQPQLGILRYFASYMEQHLMKGGDLPSVEEVEVPAPPLLLQWVKTDQALLMLFSDGTVQVNFYGDHTKLILSGWEPLLVTFVARNRSACTYLASHLRQLGCSPDLRQRLRYALRLLRDRSPA
Kd [3]: 0.0272 µM
IC50 [4]: 270 µM
IC50 [5]: 134 µM
IC50 [6]: > 600 µM
IC50 [7]: 6.3 µM
IC50 [8]: 164 µM
IC50 [9]: > 600 µM
IC50 [10]: > 600 µM
IC50 [11]: 2.2 µM
IC50 [12]: > 600 µM
IC50 [13]: 149 µM
